Source: US20250295798A1 (BEIGENE SWITZERLAND, published 2025)

How the values were obtained:
hHER3-his = biological target: T1, hHER3-his (human, UniProt P21860 20-643); assay: SPR (BIAcore 8K), mAb captured by anti-human Fc, Her3-his as analyte, 1:1 Langmuir fit, 25 C
T1 construct: Bought reagent; also called Her3-his (cat10201-H08H, SinoBiological); not shown: his tag
Method: Binding kinetics of the mAbs to the target was determined by SPR on a BIAcore 8K (GE Healthcare). The running buffer, 10 mM HEPES, 150 mM NaCl, 0.05% v/v Surfactant P20, 3 mM EDTA, pH 7.4 (HBS-EP+, GE Healthcare) was used for immobilization and reagent dilutions. All binding kinetics were measured at 25° C. For each injection cycle, mAbs were first captured in different flow cells with an anti-human Fc antibody (Human Antibody Capture Kit, GE Healthcare) immobilized to the sensor chip (Series S CM5, GE Healthcare). Reference flow cell with no captured mAb was also used. Serial dilutions of Her3-his(cat10201-H08H, SinoBiological), and buffer blanks were injected in multiple cycles over the captured mAbs and reference surfaces for association followed by dissociation. The surfaces were regenerated with an injection of 3 M MgCl2 after each cycle. Double-referenced titration data was globally fit to a 1:1 Langmuir binding model to determine the association rate constant, ka (M−1 s−1), and the dissociation rate constant, kd (s−1), using the BIAcore Insight Evaluation Software version 2.0 (GE Healthcare). The equilibrium dissociation constant was calculated as KD(M)=kd/ka.

[1] = biological target: T2, human HER3 (native, on A375 cells) (human, UniProt P21860 20-1342); assay: flow cytometry (FACS) on A375 cells, anti-human IgG Alexa Fluor 647 detection, 4-parameter fit
T2 construct: whole, on cells; also called native Her3; human native Her3
Method: Cell fluorescence was quantified using a flow cytometer (Guava easyCyte 8HT, Merck-Millipore, USA). EC50 values for dose-dependent binding to human native Her3 were determined by fitting the dose-response data to the four-parameter logistic model with GraphPad Prism.

| Kd (hHER3-his) | EC50 [1] | Binder |
| --- | --- | --- |
| 2.52 nM | 0.83 nM | mAb10 (antibody, V domains shown, Produced from heavy chain and kappa chain plasmids in CHO cells) VH: EVQLLESGGGLVQPGGSLRLSCAVSGGSFSGYYWSWIRQAPGKGLEWIGEINHSGSTNYNPSLKSRFTISVDNSKNTFYLQMNSLRAEDTAVYYCARDKWTWYFDLWGRGTLVTVSS VL: not shown |
| 1.51 nM | 0.59 nM | Patritumab (antibody, V domains shown) VH: QVQLQQWGAGLLKPSETLSLTCAVYGGSFSGYYWSWIRQPPGKGLEWIGEINHSGSTNYNPSLKSRVTISVETSKNQFSLKLSSVTAADTAVYYCARDKWTWYFDLWGRGTLVTVSS VL: not shown |
